Measured values as given in patent US20210393713A1 (University of Pennsylvania, published 2021).

T1: Twin-Strep-tagged LY6A, BALB/cJ variant (GPI-anchor truncated, soluble) (mouse (BALB/cJ), UniProt P05533 27-111)
T1 construct: range 1-111; also called BALB/cJ LY6A; BABL/cJ LY6A; not shown: Twin-Strep-tag from vector pESG-IBA103
T1 sequence: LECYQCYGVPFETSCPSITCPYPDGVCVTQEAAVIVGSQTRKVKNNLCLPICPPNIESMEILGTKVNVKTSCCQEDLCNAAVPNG


Target: T1, Twin-Strep-tagged LY6A, BALB/cJ variant …
Test: ELISA, AAV particles on plate-bound Twin-Strep-tagged LY6A

Row | Binder | binding result
1 | AAV-PHP.B V592G mutant capsid (other) MAADGYLPDWLEDNLSEGIREWWALKPGAPQPKANQQHQDNARGLVLPGYKYLGPGNGLDKGEPVNAADAAALEHDKAYDQQLKAGDNPYLKYNHADAEFQERLKEDTSFGGNLGRAVFQAKKRLLEPLGLVEEAAKTAPGKKRPVEQSPQEPDSSAGIGKSGAQPAKKRLNFGQTGDTESVPDPQPIGEPPAAPSGVGSLTMASGGGAPVADNNEGADGVGSSSGNWHCDSQWLGDRVITTSTRTWALPTYNNHLYKQISNSTSGGSSNDNAYFGYSTPWGYFDFNRFHCHFSPRDWQRLINNNWGFRPKRLNFKLFNIQVKEVTDNNGVKTIANNLTSTVQVFTDSDYQLPYVLGSAHEGCLPPFPADVFMIPQYGYLTLNDGSQAVGRSSFYCLEYFPSQMLRTGNNFQFSYEFENVPFHSSYAHSQSLDRLMNPLIDQYLYYLSRTINGSGQNQQTLKFSVAGPSNMAVQGRNYIPGPSYRQQRVSTTVTQNNNSEFAWPGASSWALNGRNSLMNPGPAMASHKEGEDRFFPLSGSLIFGKQGTGRDNVDADKVMITNEEEIKTTNPVATESYGQVATNHQSAQTLAGPFKAQAQTGWVQNQGILPGMVWQDRDVYLQGPIWAKIPHTDGNFHPSPLMGGFGMKHPPPQILIKNTPVPADPPTAFNKDKLNSFITQYSTGQVSVEIEWELQKENSKRWNPEIQYTSNYYKSNNVEFAVNTEGVYSEPRPIGTRYLTRNL | no binding
2 | AAV-PHP.eB capsid (other) MAADGYLPDWLEDNLSEGIREWWALKPGAPQPKANQQHQDNARGLVLPGYKYLGPGNGLDKGEPVNAADAAALEHDKAYDQQLKAGDNPYLKYNHADAEFQERLKEDTSFGGNLGRAVFQAKKRLLEPLGLVEEAAKTAPGKKRPVEQSPQEPDSSAGIGKSGAQPAKKRLNFGQTGDTESVPDPQPIGEPPAAPSGVGSLTMASGGGAPVADNNEGADGVGSSSGNWHCDSQWLGDRVITTSTRTWALPTYNNHLYKQISNSTSGGSSNDNAYFGYSTPWGYFDFNRFHCHFSPRDWQRLINNNWGFRPKRLNFKLFNIQVKEVTDNNGVKTIANNLTSTVQVFTDSDYQLPYVLGSAHEGCLPPFPADVFMIPQYGYLTLNDGSQAVGRSSFYCLEYFPSQMLRTGNNFQFSYEFENVPFHSSYAHSQSLDRLMNPLIDQYLYYLSRTINGSGQNQQTLKFSVAGPSNMAVQGRNYIPGPSYRQQRVSTTVTQNNNSEFAWPGASSWALNGRNSLMNPGPAMASHKEGEDRFFPLSGSLIFGKQGTGRDNVDADKVMITNEEEIKTTNPVATESYGQVATNHQSDGTLAVPFKAQAQTGWVQNQGILPGMVWQDRDVYLQGPIWAKIPHTDGNFHPSPLMGGFGMKHPPPQILIKNTPVPADPPTAFNKDKLNSFITQYSTGQVSVEIEWELQKENSKRWNPEIQYTSNYYKSNNVEFAVNTEGVYSEPRPIGTRYLTRNL | binds
